Results published in PMC7019167, “Development of a high affinity Anticalin® directed against human CD98hc for theranostic applications” (Theranostics, 2020).
Positions count from the first letter of the chain named.

How the values were obtained:
[1] = molecular target: T1, glycosylated human CD98hc ectodomain (hCD98hcEDg), monobiotinylated (human, UniProt P08195-2 111-529, single biotin group on the biotin acceptor peptide (BirA co-expressed); N-glycosylated); experiment: SPR; biotinylated hCD98hcEDg immobilised (ΔRU ≈ 225) on a streptavidin-functionalized sensorchip (Biotin CAPture kit); BIAcore 2000, 25 °C, HBS-T (20 mM Hepes/NaOH pH 7.5, 150 mM NaCl, 0.005% Tween 20); single cycle kinetics, five injections of a 1:2 dilution series of the lipocalin variant; global 1:1 Langmuir fit; KD = koff/kon; conditions: both partners purified
T1 construct: human CD98 heavy chain, extracellular domain, UniProt ID P08195-2, residues Glu111-Ala529; also called 4F2hc; SLC3A2; not shown: biotin acceptor peptide (BAP), N-terminal, kept
T1 sequence (looked up): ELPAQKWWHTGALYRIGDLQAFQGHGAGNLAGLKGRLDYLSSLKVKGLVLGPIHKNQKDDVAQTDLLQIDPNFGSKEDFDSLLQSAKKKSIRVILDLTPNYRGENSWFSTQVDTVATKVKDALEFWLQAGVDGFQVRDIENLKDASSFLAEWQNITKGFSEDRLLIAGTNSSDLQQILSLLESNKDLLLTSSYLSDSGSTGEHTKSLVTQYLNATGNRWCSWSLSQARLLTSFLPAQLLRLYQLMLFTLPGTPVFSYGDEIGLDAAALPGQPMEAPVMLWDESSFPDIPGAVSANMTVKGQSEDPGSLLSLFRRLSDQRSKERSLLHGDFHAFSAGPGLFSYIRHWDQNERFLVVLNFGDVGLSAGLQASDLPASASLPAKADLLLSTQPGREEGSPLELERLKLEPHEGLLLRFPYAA

[2] = molecular target: human CD98hc ectodomain, unglycosylated, biotinylated (hCD98hcED) (human) (UniProt P08195); experiment: SPR; single cycle kinetics (five injections of a 1:2 dilution series, 3500 s dissociation); biotinylated hCD98hcED immobilised on a streptavidin sensorchip (Biotin CAPture kit), lipocalin variant as analyte; 25 °C, HBS-T; global 1:1 Langmuir fit

B1: lipocalin variant (Anticalin) P3D11 (designed binder)
chain: QDSTSDLIPAPPLSKVPLQQNFQDNQFHGKWYVVGRAGNTGLREDKDPGKMFATIYELKEDKSYNVTYVWFGQKKCMYSIGTFVPGSQPGEFTLGNIKSAPGRTSWLVRVVSTNYNQHAMVFFKSVTQNREGFAITLYGRTKELTSELKENFIRFSKSLGLPENHIVFPVPIDQCIDG
notes: source: E. coli JM83, periplasmic extract, purified (IMAC, SEC)
[1]
  koff: 5e-05 s⁻¹
  kon: 300000 M⁻¹ s⁻¹

B2: Anticalin D11vs (P3D11 with Phe71Ser and Gly81Val) (designed binder)
chain: B1 chain with F71S, G81V
notes: source: E. coli, soluble protein at preparative scale, purified
[2]
  Kd: 0.06 nM
  koff: 2.6e-05 s⁻¹
  kon: 450000 M⁻¹ s⁻¹
  τ1/2 (complex half-life): 7.37 h
[1]
  Kd: 0.05 ± 0.003 nM
  koff: 2.2e-05 s⁻¹
  kon: 460000 M⁻¹ s⁻¹

B3: lipocalin variant (Anticalin) P1E4 (designed binder)
chain: QDSTSDLIPAPPLSKVPLQQNFQDNQFHGKWYVVGIAGNSMLREDKDPFKMTATIYELKEDKSYNVTRVRFDDKKCLYRILTFVPGSQPGEFTLGNIKSRPGWTSWLVRVVSTNYNQHAMVFFKRVHQNRETFWITLYGRTKELTSELKENFIRFSKSLGLPENHIVFPVPIDQCIDG
notes: as for B1
[1]
  Kd: 162 ± 20.9 nM
  koff: 0.09 s⁻¹
  kon: 560000 M⁻¹ s⁻¹
